Measurements published in PMC10872586 (Cell reports, 2023).

B1: CR9114 with germline heavy chain, Fab (Fab, V domains shown)
VH: QVQLVQSGAEVKKPGSSVKVSCKASGGTFSSYAISWVRQAPGQGLEWMGGIIPIFGTANYAQKFQGRVTITADKSTSTAYMELSSLRSEDTAVYYCARHGNYYYYYGMDVWGQGTTVTVSS
VL: SYVLTQPPAVSGTPGQRVTISCSGSDSNIGRRSVNWYQQFPGTAPKLLIYSNDQRPSVVPDRFSGSKSGTSASLAISGLQSEDEAEYYCAAWDDSLKGAVFGGGTQLTVL
notes: also called CR9114 gHC; WT; source: Expi293F, co-transfected, purified (CaptureSelect CH1-XL)
B2: CR9114 gHC Fab VL W91Y (Fab, V domains shown)
VH: QVQLVQSGAEVKKPGSSVKVSCKASGGTFSSYAISWVRQAPGQGLEWMGGIIPIFGTANYAQKFQGRVTITADKSTSTAYMELSSLRSEDTAVYYCARHGNYYYYYGMDVWGQGTTVTVSS
VL: SYVLTQPPAVSGTPGQRVTISCSGSDSNIGRRSVNWYQQFPGTAPKLLIYSNDQRPSVVPDRFSGSKSGTSASLAISGLQSEDEAEYYCAAYDDSLKGAVFGGGTQLTVL
notes: Kabat numbering; source: Expi293F, co-transfected, purified (CaptureSelect CH1-XL)
B3: CR9114 gHC Fab VL W91F (Fab, V domains shown)
VH: QVQLVQSGAEVKKPGSSVKVSCKASGGTFSSYAISWVRQAPGQGLEWMGGIIPIFGTANYAQKFQGRVTITADKSTSTAYMELSSLRSEDTAVYYCARHGNYYYYYGMDVWGQGTTVTVSS
VL: SYVLTQPPAVSGTPGQRVTISCSGSDSNIGRRSVNWYQQFPGTAPKLLIYSNDQRPSVVPDRFSGSKSGTSASLAISGLQSEDEAEYYCAAFDDSLKGAVFGGGTQLTVL
notes: as for B2
B4: CR9114 gHC Fab VL A96V (Fab, V domains shown)
VH: QVQLVQSGAEVKKPGSSVKVSCKASGGTFSSYAISWVRQAPGQGLEWMGGIIPIFGTANYAQKFQGRVTITADKSTSTAYMELSSLRSEDTAVYYCARHGNYYYYYGMDVWGQGTTVTVSS
VL: SYVLTQPPAVSGTPGQRVTISCSGSDSNIGRRSVNWYQQFPGTAPKLLIYSNDQRPSVVPDRFSGSKSGTSASLAISGLQSEDEAEYYCAAWDDSLKGVVFGGGTQLTVL
notes: as for B2
B5: CR9114 gHC Fab VL A96R (Fab, V domains shown)
VH: QVQLVQSGAEVKKPGSSVKVSCKASGGTFSSYAISWVRQAPGQGLEWMGGIIPIFGTANYAQKFQGRVTITADKSTSTAYMELSSLRSEDTAVYYCARHGNYYYYYGMDVWGQGTTVTVSS
VL: SYVLTQPPAVSGTPGQRVTISCSGSDSNIGRRSVNWYQQFPGTAPKLLIYSNDQRPSVVPDRFSGSKSGTSASLAISGLQSEDEAEYYCAAWDDSLKGRVFGGGTQLTVL
notes: as for B2
B6: CR9114 gHC Fab VL A96S (Fab, V domains shown)
VH: QVQLVQSGAEVKKPGSSVKVSCKASGGTFSSYAISWVRQAPGQGLEWMGGIIPIFGTANYAQKFQGRVTITADKSTSTAYMELSSLRSEDTAVYYCARHGNYYYYYGMDVWGQGTTVTVSS
VL: SYVLTQPPAVSGTPGQRVTISCSGSDSNIGRRSVNWYQQFPGTAPKLLIYSNDQRPSVVPDRFSGSKSGTSASLAISGLQSEDEAEYYCAAWDDSLKGSVFGGGTQLTVL
notes: as for B2

Tests used:
mini-HA #4900 = mini-HA #4900 (Designed influenza HA stem #4900, …, stabilised); assay: BLI; settings: both partners purified
[1] = biological target: HA protein from H1N1 A/Solomon Islands/3/2006 (Influenza A virus (A/Solomon …, UniProt A7Y8I1, strain)); assay: BLI; settings: both partners purified

Row | Binder | Kd (mini-HA #4900) [µM] | Kd [1] [µM]
1 | B1 | 6.2 | –
2 | B2 | 45.7 | 27.2
3 | B3 | 9.7 | 9.6
4 | B4 | 3.8 | 15.8
5 | B5 | 13 | 21.5
6 | B6 | 1.9 | 1.6
